Paper PMC9376091 (Scientific Reports, 2022)
Values joined by “and” are separate entries in the source; they are usually repeats but may differ in a detail not shown here. Equal values may be shown once.

Target: the molecule itself
Test: AUC

B1: homoserine acetyl transferase (HSAT, MetX, Rv3341) from M. tuberculosis, recombinant (His)6-MetX (enzyme)
chain: MTISDVPTQTLPAEGEIGLIDVGSLQLESGAVIDDVCIAVQRWGKLSPARDNVVVVLHALTGDSHITGPAGPGHPTPGWWDGVAGPGAPIDTTRWCAVATNVLGGCRGSTGPSSLARDGKPWGSRFPLISIRDQVQADVAALAALGITEVAAVVGGSMGGARALEWVVGYPDRVRAGLLLAVGARATADQIGTQTTQIAAIKADPDWQSGDYHETGRAPDAGLRLARRFAHLTYRGEIELDTRFANHNQGNEDPTAGGRYAVQSYLEHQGDKLLSRFDAGSYVILTEALNSHDVGRGRGGVSAALRACPVPVVVGGITSDRLYPLRLQQELADLLPGCAGLRVVESVYGHDGFLVETEAVGELIRQTLGLADREGACRR
stoichiometry N: 2 and 4
